For series [1], the target named is T1, Avi-mGCPII (recombinant extracellular mouse GCPII) (Mus musculus, UniProt O35409).
T1 construct: gene Folh1; extracellular domain (45-752), N-terminal biotinylated Avi-tag with TEV site, secreted from Drosophila S2 cells, streptavidin mutein purification
Kind of series: HPLC assay of pteroyl-di-L-glutamate cleavage. It counts as biochemical. Conditions: for Ki: read-out: K i (Avi-mGCPII). From the text:
HPLC assay of pteroyl-di-L-glutamate cleavage on Avi-mGCPII (recombinant extracellular mouse GCPII)

Series [2] has as its target T2, Avi-hGCPII (recombinant extracellular human GCPII) (Homo sapiens, UniProt Q04609).
T2 construct: gene FOLH1
Kind of series: HPLC assay of pteroyl-di-L-glutamate cleavage. Type of series: biochemical. Conditions: for Ki: read-out: K i (Avi-hGCPII). From the text:
HPLC assay of pteroyl-di-L-glutamate cleavage on Avi-hGCPII (recombinant extracellular human GCPII)

Series [3] relates to CC(=O)N[C@@H](CC(=O)O)C(=O)N[C@@H](CCC(=O)O)C(=O)O. Nature of the series: radioenzymatic assay. Conditions: […] Bis-Tris propane, […] NaCl, pH […]. Type of series: biochemical, Homo sapiens. From the text:
radioenzymatic assay on Avi-hGCPII (recombinant extracellular human GCPII)

Substrate in the series “radioenzymatic assay”: CC(=O)N[C@@H](CC(=O)O)C(=O)N[C@@H](CCC(=O)O)C(=O)O
Kind of series: radioenzymatic assay. Conditions: […] Bis-Tris propane, […] NaCl, pH […]. Type of series: biochemical, Mus musculus. From the text:
radioenzymatic assay on Avi-mGCPII (recombinant extracellular mouse GCPII)

Substrate in the series “HPLC assay”: Nc1nc2ncc(CNc3ccc(C(=O)N[C@@H](CCC(=O)N[C@@H](CCC(=O)O)C(=O)O)C(=O)O)cc3)nc2c(=O)[nH]1
Kind of series: HPLC assay. It counts as biochemical, Mus musculus. The following applies: […] Bis-Tris propane, […] NaCl, pH […]. An excerpt:
HPLC assay on Avi-mGCPII (recombinant extracellular mouse GCPII)

[4] abbreviates: substrate pteroyl-di-L-glutamate ([…] final), […] Bis-Tris propane, […] NaCl, pH […] °C.

Where two headings read alike, the source gives them in different places.

T2 sequence (Q04609 44-750 limits assumed): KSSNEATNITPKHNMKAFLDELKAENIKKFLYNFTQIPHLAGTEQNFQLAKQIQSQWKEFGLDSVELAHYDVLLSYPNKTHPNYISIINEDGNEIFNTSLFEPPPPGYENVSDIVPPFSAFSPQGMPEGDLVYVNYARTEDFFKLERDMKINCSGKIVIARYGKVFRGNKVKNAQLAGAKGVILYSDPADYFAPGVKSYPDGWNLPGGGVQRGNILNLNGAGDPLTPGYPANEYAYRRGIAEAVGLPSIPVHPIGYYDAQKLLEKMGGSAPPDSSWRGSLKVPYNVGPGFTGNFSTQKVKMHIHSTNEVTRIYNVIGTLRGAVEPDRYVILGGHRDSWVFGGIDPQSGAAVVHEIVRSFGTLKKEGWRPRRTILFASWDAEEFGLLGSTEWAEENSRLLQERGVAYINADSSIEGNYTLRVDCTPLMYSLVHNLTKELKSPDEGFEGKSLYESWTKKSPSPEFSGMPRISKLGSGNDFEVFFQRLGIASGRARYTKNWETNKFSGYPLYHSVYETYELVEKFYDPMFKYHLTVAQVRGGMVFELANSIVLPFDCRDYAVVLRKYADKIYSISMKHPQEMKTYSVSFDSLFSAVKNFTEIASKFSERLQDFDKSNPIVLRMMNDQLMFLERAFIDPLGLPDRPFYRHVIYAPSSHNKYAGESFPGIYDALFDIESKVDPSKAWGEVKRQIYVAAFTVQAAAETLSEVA

Take `O=C(O)CCC(CP(=O)(O)O)C(=O)O` (centres unmarked) [2-PMPA, 2‐(phosphonomethyl)pentanedioic acid]: the Ki in series [1] (setting [4]) turned out to be 0.56 ± 0.05 nM.
`O=C(O)CCc1ccc(O)c(CN(CCN(CC(=O)O)Cc2cc(CCC(=O)NCCCCCC(=O)NCCCC[C@H](NC(=O)N[C@@H](CCC(=O)O)C(=O)O)C(=O)O)ccc2O)CC(=O)O)c1` [DKFZ-PSMA-11]: the Ki turned out to be 0.1 ± 0.01 nM in series [1] and 0.018 ± 0.002 nM in series [2] (setting [4]).
With `N[C@@H](Cn1oc(=O)[nH]c1=O)C(=O)O` [Quisqualate], the Ki was 580 ± 60 nM in series [1] and 520 ± 80 nM in series [2].
On to `CC(C)C[C@H](NC(=O)N[C@@H](CCC(=O)O)C(=O)O)C(=O)O` [ZJ-43, (S)‐2‐(3‐((S)‐1‐carboxy‐3‐methylbutyl)ureido)pentanedioic acid], for which the Ki in series [1] worked out at 5.9 ± 0.9 nM.
On to `O=C(O)CC[C@H](NC(=O)C(O)(CC(=O)O)CC(=O)O)C(=O)O` [β-citryl-L-glutamate], for which, in series [1] (setting [4]), the “K i (Avi-mGCPII) (nM)” value was 24 000 ± 3000 nM. Also, in series [2] (setting [4]), the “K i (Avi-hGCPII) (nM)” value is reported as 16 000 ± 5000 nM.
On to “Avi-hGCPII (recombinant extracellular human GCPII) (Homo sapiens)”, for which, in series [3], the Km amounted to 0.55 ± 0.06 µM, the kcat was determined as 1.45 ± 0.04 s⁻¹ and the kcat/Km worked out at 2.65e+06 ± 70000 M⁻¹ s⁻¹.

B1: Avi-mGCPII (recombinant extracellular mouse GCPII) (Mus musculus) (protein)
chain: KPSNEATGNVSHSGMKKEFLHELKAENIKKFLYNFTRTPHLAGTQNNFELAKQIHDQWKEFGLDLVELSHYDVLLSYPNKTHPNYISIINEDGNEIFKTSLSEQPPPGYENISDVVPPYSAFSPQGTPEGDLVYVNYARTEDFFKLEREMKISCSGKIVIARYGKVFRGNMVKNAQLAGAKGMILYSDPADYFVPAVKSYPDGWNLPGGGVQRGNVLNLNGAGDPLTPGYPANEHAYRHELTNAVGLPSIPVHPIGYDDAQKLLEHMGGPAPPDSSWKGGLKVPYNVGPGFAGNFSTQKVKMHIHSYTKVTRIYNVIGTLKGALEPDRYVILGGHRDAWVFGGIDPQSGAAVVHEIVRSFGTLKKKGRRPRRTILFASWDAEEFGLLGSTEWAEEHSRLLQERGVAYINADSSIEGNYTLRVDCTPLMYSLVYNLTKELQSPDEGFEGKSLYDSWKEKSPSPEFIGMPRISKLGSGNDFEVFFQRLGIASGRARYTKNWKTNKVSSYPLYHSVYETYELVVKFYDPTFKYHLTVAQVRGAMVFELANSIVLPFDCQSYAVALKKYADTIYNISMKHPQEMKAYMISFDSLFSAVNNFTDVASKFNQRLQELDKSNPILLRIMNDQLMYLERAFIDPLGLPGRPFYRHIIYAPSSHNKYAGESFPGIYDALFDISSKVNASKAWNEVKRQISIATFTVQAAAETLREVA
notes: extracellular domain (45-752), N-terminal biotinylated Avi-tag with TEV site, secreted from Drosophila S2 cells, streptavidin mutein purification
As to B1, in the series “radioenzymatic assay”, the Km worked out at 1.9 ± 0.1 µM, the kcat worked out at 1.44 ± 0.02 s⁻¹ and the kcat/Km came out at 770000 ± 10000 M⁻¹ s⁻¹. Further, in the series “HPLC assay”, the Km stood at 0.29 ± 0.02 µM, the kcat was 3.63 ± 0.09 s⁻¹ and the kcat/Km turned out to be 1.26e+07 ± 800000 M⁻¹ s⁻¹.

In general, Km refers to the concentration of substrate that gives half-maximal velocity. As usually defined, the kcat is the maximal rate divided by the concentration of active sites. What is called kcat/Km is the turnover number divided by the Michaelis constant.

The values are drawn from PMC5586342, “Mouse glutamate carboxypeptidase II (GCPII) has a similar enzyme activity and inhibition profile but a different tissue distribution to human GCPII” (FEBS Open Bio, 2017).
